# According to article PMC5288196:
# Legend:
# [1] = biological target: C2 isoform of CD46 on CHO-C2 cells (human)
# [2] = biological target: C2 isoform of CD46 on CHO-C2 cells (human); remark: listed apart in the source
# [3] = biological target: adenovirus serotype 43 virions (human adenovirus serotype 43)
# [4] = biological target: adenovirus serotype 35 vector virions (human adenovirus serotype 35)
# [5] = biological target: integrins on CHO and CHO-C2 cells (Chinese hamster (endogenous in CHO))
# Chain of recombinant soluble human CD46 protein comprising the extracellular component of the receptor (P15529 35-343): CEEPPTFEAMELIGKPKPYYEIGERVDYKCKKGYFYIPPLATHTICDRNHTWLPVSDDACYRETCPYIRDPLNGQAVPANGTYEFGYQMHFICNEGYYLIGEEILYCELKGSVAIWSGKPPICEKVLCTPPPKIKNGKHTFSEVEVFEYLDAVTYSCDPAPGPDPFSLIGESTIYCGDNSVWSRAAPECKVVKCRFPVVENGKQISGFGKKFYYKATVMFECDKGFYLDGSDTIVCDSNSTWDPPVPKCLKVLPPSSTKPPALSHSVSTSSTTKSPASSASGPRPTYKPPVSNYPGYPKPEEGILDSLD
substance,measurement,setting,value
recombinant Ad35 fiber knob domain (domain or fragment),inhibition of Ad35TL transduction of CHO-C2 cells pre-incubated with the Ad35 knob (Fluc activity); the pair blocked is m4 with m6,[1],90%
same,inhibition of Ad43TL transduction of CHO-C2 cells pre-incubated with the Ad35 knob (Fluc activity); the pair blocked is m3 with m6,[1],45%
recombinant Ad43 fiber knob protein (domain or fragment),inhibition of Ad43TL infection of CHO-C2 cells pre-incubated with the Ad43 knob at 100 μg/ml (no inhibition; the text prints 100 mg/ml) and 1 mg/ml; the pair blocked is m3 with m6,[2],55%
recombinant soluble human CD46 protein comprising the extracellular component of the receptor (from UniProt P15529 35-343) (domain or fragment),inhibition of CHO-C2 transduction by Ad43TL pre-incubated with sCD46 (Fluc activity); the pair blocked is m3 with m6,[3],66%
same,inhibition of CHO-C2 transduction by Ad35TL pre-incubated with sCD46 (Fluc activity); the pair blocked is m4 with m6,[4],92%
adenovirus serotype 43 virions (complex),"inhibition of Ad43TL transduction of CHO and CHO-C2 cells pre-treated on ice with EDTA (10 mM), virus attached on ice",[5],> 80%
same,"inhibition of Ad43TL transduction of CHO and CHO-C2 cells pre-treated on ice with the RGD-containing peptide GRGDSP (2 mg/ml), virus attached on ice",[5],> 80%
